# Experimental data from IntAct's records for PubMed 19379692.
# B1: SET domain-containing protein 3 (Saccharomyces cerevisiae), P36124 (parent)
# chain: MSVPNSKEQSLLDDASTLLLFSKGKKRAEEASKIGSKTDTIEHDESHEREKKGAIEMAAAALATASTVSLPLKKATEQSAAEAATSTAAKEETENQPQKQPQWPVPDSYIVDPDAGIITCICDLNDDDGFTIQCDHCNRWQHAICYGIKDIGMAPDDYLCNSCDPREVDINLARKIQQERINVKTVEPSSSNNSASNKNNGRDRASSTTISDVGDSFSTDQDNTNHRDKRRKRNPSNNSIDSKNESASVNSSDGLTSMPKKKEHFLSAKDAYGAIYLPLKDNVFKSDLIEPFLNKHMDDNWVIQYPHKTFKSVSIEVKPYADIAYSRTYPGFTKLGVYLKKDCIKGDFIQEILGELDFYKNYLTDPRNHYRIWGTAKRRVIFHSHWPIYIDARLSGNSTRYLRRSCQPNVELVTIKLQDTDNRNDKSSGRKSSRIKFVLRALRDISEDEELYIKWQWDSKHPILKLIKGMTIDSLDDLERYGLINSVETILSNGECGCGNNSKDCYLLKVKRYAQSLYKSVKSRGKMNNRYKLNEILNQYNCKKRREPPILHRLEEKAQNTIERAPILLNNFYRQKFLNRNNGPKIPQKNTIDSTNNPDDIAKPFKFALFAQHSSNISVPKKNETSEKPLIITKSTDYDESHITNIEELPIPVLLPINKTSRQTANDVEESQSKNEHKLSRTPSLSNFNKELSKEAQHSQAKTKEIMTEASVNSRRESTPESIMHLSDFSSSQLHSKKKLSFADYRKKLLK
# Variants of: B1
# Details: with h4_yeast HHF1, P02309
row,effect of a mutation on the interaction,Variant
1,decreasing interaction,W140A
